The values that follow come from paper PMC4718636, “Recombinant hTRBP and hPACT Modulate hAgo2-Catalyzed siRNA-Mediated Target RNA Cleavage In Vitro” (PLoS ONE, 2016).

The test deals with T1, GST-hAgo2 (human Argonaute2) (human, UniProt Q9UKV8 1-859).
T1 construct: human Argonaute2 (hAgo2); In the cleavage assays hAgo2 stood with siRNA (hAgo2/siRNA complex); also called wt-hAgo2; hArgonaute2; source: expressed and purified as previously described [27]
As to the kind of experiment: pull-down; pulldown assays shown only in Figure I of the S1 Supporting Information File; format not given. Conditions: both partners purified.

T1 sequence (Q9UKV8 whole entry): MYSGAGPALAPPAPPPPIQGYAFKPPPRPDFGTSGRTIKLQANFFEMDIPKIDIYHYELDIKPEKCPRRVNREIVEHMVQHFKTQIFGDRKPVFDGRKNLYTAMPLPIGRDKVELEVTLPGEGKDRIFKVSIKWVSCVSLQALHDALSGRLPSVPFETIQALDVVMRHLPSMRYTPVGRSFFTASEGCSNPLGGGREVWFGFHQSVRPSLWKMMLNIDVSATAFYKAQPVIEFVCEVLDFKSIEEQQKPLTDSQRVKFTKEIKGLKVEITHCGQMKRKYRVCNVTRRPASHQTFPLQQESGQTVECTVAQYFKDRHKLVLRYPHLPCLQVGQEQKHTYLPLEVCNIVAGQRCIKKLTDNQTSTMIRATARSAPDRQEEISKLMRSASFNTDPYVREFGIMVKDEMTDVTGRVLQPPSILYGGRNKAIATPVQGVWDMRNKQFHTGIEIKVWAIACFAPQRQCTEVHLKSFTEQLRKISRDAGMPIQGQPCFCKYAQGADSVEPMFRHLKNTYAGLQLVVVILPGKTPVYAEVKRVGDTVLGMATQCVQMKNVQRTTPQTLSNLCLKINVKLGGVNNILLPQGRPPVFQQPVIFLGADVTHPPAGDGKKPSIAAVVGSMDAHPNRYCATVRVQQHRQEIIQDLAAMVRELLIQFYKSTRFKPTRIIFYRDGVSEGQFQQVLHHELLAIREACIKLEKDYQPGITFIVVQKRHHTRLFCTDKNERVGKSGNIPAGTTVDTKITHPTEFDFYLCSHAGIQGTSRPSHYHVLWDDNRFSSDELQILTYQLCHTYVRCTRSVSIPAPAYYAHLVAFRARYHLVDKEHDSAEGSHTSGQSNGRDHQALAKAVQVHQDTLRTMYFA

B1: His-hPACT (human protein activator of protein kinase R), purified under native conditions (natural protein, UniProt O75569 1-313, looked up)
chain: MSQSRHRAEAPPLEREDSGTFSLGKMITAKPGKTPIQVLHEYGMKTKNIPVYECERSDVQIHVPTFTFRVTVGDITCTGEGTSKKLAKHRAAEAAINILKANASICFAVPDPLMPDPSKQPKNQLNPIGSLQELAIHHGWRLPEYTLSQEGGPAHKREYTTICRLESFMETGKGASKKQAKRNAAEKFLAKFSNISPENHISLTNVVGHSLGCTWHSLRNSPGEKINLLKRSLLSIPNTDYIQLLSEIAKEQGFNITYLDIDELSANGQYQCLAELSTSPITVCHGSGISCGNAQSDAAHNALQYLKIIAERK
notes: No removal of the His tag is described; also called hPACT^nat; source: E. coli BL21 (DE3), purified under native conditions (Talon Superflow)
On to B1, for which the binding result was “binds”.
